Laboratory results taken from patent US20040005648A1, “PYK2 related products and methods” (Sugen, Inc., priority 1994, published 2004).

Legend:
Shc = experiment: Tyrosine phosphorylation of Shc in stimulated PC12 cells (anti-Shc immunoprecipitation, anti-phosphotyrosine immunoblot); type: cell-based, rat
Description: Tyrosine phosphorylation of Shc in response to bradykinin, carbachol, PMA and other stimuli was also measured. Quiescent PC12 cells were stimulated for 5 min at 37° C. with bradykinin (1AM), carbachol (1 mM), KC1 (75 mM), PMA (1.6pM), NGF (100 ng/ml), or left unstimulated (−). The cells were also stimulated with carbachol (1 mM) or potassium chloride (75 mM) in the presence of 3 mM EGTA. Stimulations with DMPP (100 μM) or muscarine (1 mM) were preformed under the same conditions. […] The Shc proteins were immunoprecipitated with anti-Shc antibodies, the immunoprecipitates were resolved by SDS-PAGE (8%1, transferred to nitrocellulose and immunoblotted with anti-phosphotyrosine antibodies.

PYK-2 = experiment: Tyrosine phosphorylation of PYK-2 in NIH3T3 cell lines that overexpress PYK-2; type: cell-based, mouse; details: NIH3T3 cells overexpressing PYK-2 / PYK-2-HA; TPA 6 μM, 15 min at 37° C.
Description: Stable cell lines of NIH3T3 that overexpress PYK2 were established by contransfection of PYK2 subcloned into pLSV together with pSV2neo utilizing lipofectamine reagent (GIBCO BRL). Following transfection the cells were grown in Dulbecco's modified Eagle's medium containing 10% fetal bovine serum and 1 mg/ml G418. Transient transfections into 293 cells were performed by using the calcium phosphate technique (*).
The PYK-2 cDNA cloned in PLSV was cotransfected with pSV2neo into PC12 cells and NIH3T3 in order to establish stable cell lines. G418 resistant colonies were screened by immunoprecipitating and immunoblotting.
NIH3T3 cell lines were established that overexpress the PYK-2 and the PYK-2-HA protein. […] The level of phosphorylation is not so high.

B1: NGF: growth factor stimulus of PC12 cells (protein, UniProt P25427 122-241, looked up)
Beta-nerve growth factor: SSTHPVFHMGEFSVCDSVSVWVGDKTTATDIKGKEVTVLGEVNINNSVFKQYFFETKCRAPNPVESGCRGIDSKHWNSYCTTTHTFVKALTTDDKQAAWRFIRIDTACVCVLSRKAARRG
modifications: Beta-nerve growth factor
notes: growth factor stimulus of PC12 cells
- duration of stimulation of Shc phosphorylation after addition (Shc): five
- tyrosine phosphorylation of Shc in response to the agent (Shc): induced persistent stimulation of Shc phosphorylation

B2: EGF: growth factor stimulus (protein, UniProt P01133 23-1207, looked up)
Pro-epidermal growth factor: PQHWSCPEGTLAGNGNSTCVGPAPFLIFSHGNSIFRIDTEGTNYEQLVVDAGVSVIMDFHYNEKRIYWVDLERQLLQRVFLNGSRQERVCNIEKNVSGMAINWINEEVIWSNQQEGIITVTDMKGNNSHILLSALKYPANVAVDPVERFIFWSSEVAGSLYRADLDGVGVKALLETSEKITAVSLDVLDKRLFWIQYNREGSNSLICSCDYDGGSVHISKHPTQHNLFAMSLFGDRIFYSTWKMKTIWIANKHTGKDMVRINLHSSFVPLGELKVVHPLAQPKAEDDTWEPEQKLCKLRKGNCSSTVCGQDLQSHLCMCAEGYALSRDRKYCEDVNECAFWNHGCTLGCKNTPGSYYCTCPVGFVLLPDGKRCHQLVSCPRNVSECSHDCVLTSEGPLCFCPEGSVLERDGKTCSGCSSPDNGGCSQLCVPLSPVSWECDCFPGYDLQLDEKSCAASGPQPFLLFANSQDIRHMHFDGTDYGTLLSQQMGMVYALDHDPVENKIYFAHTALKWIERANMDGSQRERLIEEGVDVPEGLAVDWIGRRFYWTDRGKSLIGRSDLNGKRSKIITKENISQPRGIAVHPMAKRLFWTDTGINPRIESSSLQGLGRLVIASSDLIWPSGITIDFLTDKLYWCDAKQSVIEMANLDGSKRRRLTQNDVGHPFAVAVFEDYVWFSDWAMPSVMRVNKRTGKDRVRLQGSMLKPSSLVVVHPLAKPGADPCLYQNGGCEHICKKRLGTAWCSCREGFMKASDGKTCLALDGHQLLAGGEVDLKNQVTPLDILSKTRVSEDNITESQHMLVAEIMVSDQDDCAPVGCSMYARCISEGEDATCQCLKGFAGDGKLCSDIDECEMGVPVCPPASSKCINTEGGYVCRCSEGYQGDGIHCLDIDECQLGEHSCGENASCTNTEGGYTCMCAGRLSEPGLICPDSTPPPHLREDDHHYSVRNSDSECPLSHDGYCLHDGVCMYIEALDKYACNCVVGYIGERCQYRDLKWWELRHAGHGQQQKVIVVAVCVVVLVMLLLLSLWGAHYYRTQKLLSKNPKNPYEESSRDVRSRRPADTEDGMSSCPQPWFVVIKEHQDLKNGGQPVAGEDGQAADGSMQPTSWRQEPQLCGMGTEQGCWIPVSSDKGSCPQVMERSFHMPSYGTQTLEGGVEKPHSLLSANPLWQQRALDPPHQMELTQ
modifications: Pro-epidermal growth factor
notes: growth factor stimulus
- tyrosine phosphorylation of PYK-2 in response to the agent (PYK-2): undergoes tyrosine phosphorylation
